Publication PMC12030614
* marks the point of attachment. AMC = Cc1cc(=O)oc2cc(N*)ccc12

Legend:
[1] = target: Ta-P7 (Triticum aestivum L.)
[2] = target: Ta-V6 (Triticum aestivum L.)
[3] = target: Triticain-α (Triticum aestivum L.)

B1: acetyl-Pro-Leu-Val-Gln-7-amino-4-methylcoumarin (peptide)
peptide: Ac-PLVQ-{AMC}
SMILES: CC(=O)N1CCC[C@H]1C(=O)N[C@@H](CC(C)C)C(=O)N[C@H](C(=O)N[C@@H](CCC(N)=O)C(=O)Nc1ccc2c(C)cc(=O)oc2c1)C(C)C
- KM of Ac-PLVQ-AMC hydrolysis, pH 3.6, 37 °C [1]: 44.7 µM
- KM of Ac-PLVQ-AMC hydrolysis, pH 4.6, 37 °C [1]: 32.2 µM
- KM of Ac-PLVQ-AMC hydrolysis, pH 5.6, 37 °C [1]: 24.5 µM
- KM of Ac-PLVQ-AMC hydrolysis, pH 6.5, 37 °C [1]: 31.4 µM
- KM of Ac-PLVQ-AMC hydrolysis, pH 7.5, 37 °C [1]: 35.3 µM
- KM of Ac-PLVQ-AMC hydrolysis, pH 3.6, 37 °C [2]: 16.4 µM
- KM of Ac-PLVQ-AMC hydrolysis, pH 4.6, 37 °C [2]: 20.5 µM
- KM of Ac-PLVQ-AMC hydrolysis, pH 5.6, 37 °C [2]: 22.6 µM
- KM of Ac-PLVQ-AMC hydrolysis, pH 6.5, 37 °C [2]: 26.9 µM
- KM of Ac-PLVQ-AMC hydrolysis, pH 7.5, 37 °C [2]: 29.2 µM
- KM of Ac-PLVQ-AMC hydrolysis, pH 3.6, 37 °C [3]: 21.5 µM
- KM of Ac-PLVQ-AMC hydrolysis, pH 4.6, 37 °C [3]: 34.6 µM
- KM of Ac-PLVQ-AMC hydrolysis, pH 5.6, 37 °C [3]: 46 µM
- KM of Ac-PLVQ-AMC hydrolysis, pH 6.5, 37 °C [3]: 49.4 µM
- KM of Ac-PLVQ-AMC hydrolysis, pH 7.5, 37 °C [3]: 583 µM
